Measurements published in the supplement of paper PMC10724198.

Experiments:
Saccharomyces cerevisiae [1] = test: protein stability index of tFT-peptide fusion in wild type (PSI (0-1 scale)); higher = more stable (slower turnover); conditions: genetic background: wild type
Saccharomyces cerevisiae [2] = test: protein stability index of tFT-peptide fusion in deletion strain of DOA10 (PSI (0-1 scale)); higher = more stable (slower turnover)
Procedure: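 MPS profiling in S. cerevisiae of two library types built from selected 12-aa C-degron peptides (IN1, IN2, LN1, LN3, VN2, R1-R5, W1-W3, Atg1 and Rpa12 C-termini): saturation mutagenesis libraries and C-terminal +1 capping libraries (13 aa). Each peptide is fused to the C-terminus of a sfGFP-mCherry timer, after a GGGS linker. Cells are FACS-sorted into 8 mCherry/sfGFP bins and sequenced. PSI runs from 0 (unstable) to 1 (stable), measured once in wild type and in the das1Δ or doa10Δ background.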

Saccharomyces cerevisiae [3] = test: protein stability index of tFT-peptide fusion in deletion strain of DAS1 (PSI (0-1 scale)); higher = more stable (slower turnover)
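Throughout, for protein stability index of tFT-peptide fusion in deletion strain of DAS1: PSI is a weighted mean of each variant's read distribution over the sorted stability bins, computed only for variants having over 10 reads in total.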
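Throughout, for protein stability index of tFT-peptide fusion in deletion strain of DOA10: PSI per variant is the weighted mean of its sequencing read distribution over the sorted stability bins, counting only variants with over 10 reads summed across bins.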
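Throughout, for protein stability index of tFT-peptide fusion in wild type: PSI derived as read-weighted mean over the 8 sorting bins, only variants exceeding 10 total reads kept, mCherry placed adjacent to the peptide and sfGFP distal.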

Sequence: AIRLPMCPLLLR
- protein stability index (Saccharomyces cerevisiae [1]): 0.27
- protein stability index (Saccharomyces cerevisiae [2]): 0.649

Sequence: AISLPMCPLLLR
- protein stability index (Saccharomyces cerevisiae [1]): 0.226
- protein stability index (Saccharomyces cerevisiae [2]): 0.655

Sequence: AITFPMCPLLLR
- protein stability index (Saccharomyces cerevisiae [1]): 0.3
- protein stability index (Saccharomyces cerevisiae [2]): 0.676

Sequence: AITLIMCPLLLR
- protein stability index (Saccharomyces cerevisiae [1]): 0.465
- protein stability index (Saccharomyces cerevisiae [2]): 0.658

Sequence: AITLPGCPLLLR
- protein stability index (Saccharomyces cerevisiae [1]): 0.327
- protein stability index (Saccharomyces cerevisiae [2]): 0.683

Sequence: AITLPMCPALLR
- protein stability index (Saccharomyces cerevisiae [1]): 0.493
- protein stability index (Saccharomyces cerevisiae [2]): 0.672

Sequence: AITLPMCPLLLC
- protein stability index (Saccharomyces cerevisiae [1]): 0.134
- protein stability index (Saccharomyces cerevisiae [2]): 0.184

Sequence: AITLPMCPLLLRK
- protein stability index (Saccharomyces cerevisiae [1]): 0.43
- protein stability index (Saccharomyces cerevisiae [2]): 0.67

Sequence: AITLPMCPLLLRM
- protein stability index (Saccharomyces cerevisiae [1]): 0.172
- protein stability index (Saccharomyces cerevisiae [2]): 0.573

Sequence: AITLPMCPLLLRQ
- protein stability index (Saccharomyces cerevisiae [1]): 0.34
- protein stability index (Saccharomyces cerevisiae [2]): 0.634

Sequence: AITLPMCPLLLS
- protein stability index (Saccharomyces cerevisiae [1]): 0.405
- protein stability index (Saccharomyces cerevisiae [2]): 0.443

Sequence: AITLPMCPLLLT
- protein stability index (Saccharomyces cerevisiae [1]): 0.449
- protein stability index (Saccharomyces cerevisiae [2]): 0.491

Sequence: AITLPMCPLLPR
- protein stability index (Saccharomyces cerevisiae [1]): 0.667
- protein stability index (Saccharomyces cerevisiae [2]): 0.673

Sequence: AITLPMHPLLLR
- protein stability index (Saccharomyces cerevisiae [1]): 0.25
- protein stability index (Saccharomyces cerevisiae [2]): 0.643

Sequence: AITLRMCPLLLR
- protein stability index (Saccharomyces cerevisiae [1]): 0.389
- protein stability index (Saccharomyces cerevisiae [2]): 0.643

Sequence: AITQPMCPLLLR
- protein stability index (Saccharomyces cerevisiae [1]): 0.508
- protein stability index (Saccharomyces cerevisiae [2]): 0.701

Sequence: ATTLPMCPLLLR
- protein stability index (Saccharomyces cerevisiae [1]): 0.383
- protein stability index (Saccharomyces cerevisiae [2]): 0.673

Sequence: CGVSLPILLFFR
- protein stability index (Saccharomyces cerevisiae [1]): 0.0581
- protein stability index (Saccharomyces cerevisiae [2]): 0.622

Sequence: CLVMLPILLFFR
- protein stability index (Saccharomyces cerevisiae [1]): 0.0682
- protein stability index (Saccharomyces cerevisiae [2]): 0.426

Sequence: CLVQLPILLFFR
- protein stability index (Saccharomyces cerevisiae [1]): 0.0481
- protein stability index (Saccharomyces cerevisiae [2]): 0.597

Sequence: CLVSKPILLFFR
- protein stability index (Saccharomyces cerevisiae [1]): 0.17
- protein stability index (Saccharomyces cerevisiae [2]): 0.627

Sequence: CLVSLCILLFFR
- protein stability index (Saccharomyces cerevisiae [1]): 0.23
- protein stability index (Saccharomyces cerevisiae [2]): 0.334

Sequence: CLVSLLILLFFR
- protein stability index (Saccharomyces cerevisiae [1]): 0.319
- protein stability index (Saccharomyces cerevisiae [2]): 0.408

Sequence: CLVSLNILLFFR
- protein stability index (Saccharomyces cerevisiae [1]): 0.17
- protein stability index (Saccharomyces cerevisiae [2]): 0.323

Sequence: CLVSLPIELFFR
- protein stability index (Saccharomyces cerevisiae [1]): 0.596
- protein stability index (Saccharomyces cerevisiae [2]): 0.656

Sequence: CLVSLPIKLFFR
- protein stability index (Saccharomyces cerevisiae [1]): 0.123
- protein stability index (Saccharomyces cerevisiae [2]): 0.652

Sequence: CLVSLPILCFFR
- protein stability index (Saccharomyces cerevisiae [1]): 0.0771
- protein stability index (Saccharomyces cerevisiae [2]): 0.558

Sequence: CLVSLPILLFFC
- protein stability index (Saccharomyces cerevisiae [1]): 0.0908
- protein stability index (Saccharomyces cerevisiae [2]): 0.249

Sequence: CLVSLPILLFFK
- protein stability index (Saccharomyces cerevisiae [1]): 0.0574
- protein stability index (Saccharomyces cerevisiae [2]): 0.577

Sequence: CLVSLPILLFFW
- protein stability index (Saccharomyces cerevisiae [1]): 0.252
- protein stability index (Saccharomyces cerevisiae [2]): 0.435

Sequence: CLVSLPILLFNR
- protein stability index (Saccharomyces cerevisiae [1]): 0.394
- protein stability index (Saccharomyces cerevisiae [2]): 0.588

Sequence: CLVSLPILLFVR
- protein stability index (Saccharomyces cerevisiae [1]): 0.0446
- protein stability index (Saccharomyces cerevisiae [2]): 0.249

Sequence: CLVSLPILLIFR
- protein stability index (Saccharomyces cerevisiae [1]): 0.0669
- protein stability index (Saccharomyces cerevisiae [2]): 0.537

Sequence: CLVSLPMLLFFR
- protein stability index (Saccharomyces cerevisiae [1]): 0.0605
- protein stability index (Saccharomyces cerevisiae [2]): 0.626

Sequence: CLVSLPWLLFFR
- protein stability index (Saccharomyces cerevisiae [1]): 0.144
- protein stability index (Saccharomyces cerevisiae [2]): 0.65

Sequence: CLVSNPILLFFR
- protein stability index (Saccharomyces cerevisiae [1]): 0.368
- protein stability index (Saccharomyces cerevisiae [2]): 0.661

Sequence: CLVSQPILLFFR
- protein stability index (Saccharomyces cerevisiae [1]): 0.227
- protein stability index (Saccharomyces cerevisiae [2]): 0.628

Sequence: CLVVLPILLFFR
- protein stability index (Saccharomyces cerevisiae [1]): 0.0796
- protein stability index (Saccharomyces cerevisiae [2]): 0.451

Sequence: GLQMCSVGCWFR
- protein stability index (Saccharomyces cerevisiae [1]): 0.195
- protein stability index (Saccharomyces cerevisiae [2]): 0.656

Sequence: GLTMCSVGCWFR
- protein stability index (Saccharomyces cerevisiae [1]): 0.219
- protein stability index (Saccharomyces cerevisiae [2]): 0.674

Sequence: GLVMCSVGCWFR
- protein stability index (Saccharomyces cerevisiae [1]): 0.19
- protein stability index (Saccharomyces cerevisiae [2]): 0.45

Sequence: GLYGCSVGCWFR
- protein stability index (Saccharomyces cerevisiae [1]): 0.504
- protein stability index (Saccharomyces cerevisiae [2]): 0.683

Sequence: GLYHCSVGCWFR
- protein stability index (Saccharomyces cerevisiae [1]): 0.409
- protein stability index (Saccharomyces cerevisiae [2]): 0.674

Sequence: GLYMASVGCWFR
- protein stability index (Saccharomyces cerevisiae [1]): 0.322
- protein stability index (Saccharomyces cerevisiae [2]): 0.684

Sequence: GLYMCMVGCWFR
- protein stability index (Saccharomyces cerevisiae [1]): 0.25
- protein stability index (Saccharomyces cerevisiae [2]): 0.462

Sequence: GLYMCSDGCWFR
- protein stability index (Saccharomyces cerevisiae [1]): 0.65
- protein stability index (Saccharomyces cerevisiae [2]): 0.718

Sequence: GLYMCSGGCWFR
- protein stability index (Saccharomyces cerevisiae [1]): 0.47
- protein stability index (Saccharomyces cerevisiae [2]): 0.687

Sequence: GLYMCSSGCWFR
- protein stability index (Saccharomyces cerevisiae [1]): 0.435
- protein stability index (Saccharomyces cerevisiae [2]): 0.679

Sequence: GLYMCSVGCDFR
- protein stability index (Saccharomyces cerevisiae [1]): 0.641
- protein stability index (Saccharomyces cerevisiae [2]): 0.663

Sequence: GLYMCSVGCPFR
- protein stability index (Saccharomyces cerevisiae [1]): 0.642
- protein stability index (Saccharomyces cerevisiae [2]): 0.677

Sequence: GLYMCSVGCWFC
- protein stability index (Saccharomyces cerevisiae [1]): 0.261
- protein stability index (Saccharomyces cerevisiae [2]): 0.287

Sequence: GLYMCSVGCWFH
- protein stability index (Saccharomyces cerevisiae [1]): 0.401
- protein stability index (Saccharomyces cerevisiae [2]): 0.497

Sequence: GLYMCSVGCWFN
- protein stability index (Saccharomyces cerevisiae [1]): 0.29
- protein stability index (Saccharomyces cerevisiae [2]): 0.343

Sequence: GLYMCSVGCWFRD
- protein stability index (Saccharomyces cerevisiae [1]): 0.431
- protein stability index (Saccharomyces cerevisiae [2]): 0.649

Sequence: GLYMCSVGCWFRR
- protein stability index (Saccharomyces cerevisiae [1]): 0.347
- protein stability index (Saccharomyces cerevisiae [2]): 0.646

Sequence: GLYMCSVGCWFW
- protein stability index (Saccharomyces cerevisiae [1]): 0.333
- protein stability index (Saccharomyces cerevisiae [2]): 0.453

Sequence: SKILRQKMNHQN
- protein stability index (Saccharomyces cerevisiae [1]): 0.153
- protein stability index (Saccharomyces cerevisiae [3]): 0.677

Sequence: TSLAASFWRVVG
- protein stability index (Saccharomyces cerevisiae [1]): 0.125
- protein stability index (Saccharomyces cerevisiae [3]): 0.688

Sequence: VGGAVGGWRLVG
- protein stability index (Saccharomyces cerevisiae [1]): 0.156
- protein stability index (Saccharomyces cerevisiae [3]): 0.67

Sequence: VKHKKGQKQKIN
- protein stability index (Saccharomyces cerevisiae [1]): 0.105
- protein stability index (Saccharomyces cerevisiae [3]): 0.716

Sequence: VKILRQKMNHQN
- protein stability index (Saccharomyces cerevisiae [1]): 0.174
- protein stability index (Saccharomyces cerevisiae [3]): 0.67

Sequence: VLGAVGGWRLVG
- protein stability index (Saccharomyces cerevisiae [1]): 0.133
- protein stability index (Saccharomyces cerevisiae [3]): 0.673

Sequence: VLIQPLPVQFLN
- protein stability index (Saccharomyces cerevisiae [1]): 0.0725
- protein stability index (Saccharomyces cerevisiae [3]): 0.603

Sequence: VRGAEGGWRLVG
- protein stability index (Saccharomyces cerevisiae [1]): 0.242
- protein stability index (Saccharomyces cerevisiae [3]): 0.686

Sequence: VRGALGGWRLVG
- protein stability index (Saccharomyces cerevisiae [1]): 0.171
- protein stability index (Saccharomyces cerevisiae [3]): 0.669

Sequence: VRGATGGWRLVG
- protein stability index (Saccharomyces cerevisiae [1]): 0.188
- protein stability index (Saccharomyces cerevisiae [3]): 0.682

Sequence: VRGAVGDWRLVG
- protein stability index (Saccharomyces cerevisiae [1]): 0.215
- protein stability index (Saccharomyces cerevisiae [3]): 0.658

Sequence: VRGAVGEWRLVG
- protein stability index (Saccharomyces cerevisiae [1]): 0.182
- protein stability index (Saccharomyces cerevisiae [3]): 0.696

Sequence: VRGAVGGFRLVG
- protein stability index (Saccharomyces cerevisiae [1]): 0.661
- protein stability index (Saccharomyces cerevisiae [3]): 0.677

Sequence: VRGAVGGLRLVG
- protein stability index (Saccharomyces cerevisiae [1]): 0.628
- protein stability index (Saccharomyces cerevisiae [3]): 0.681

Sequence: VRGAVGGWMLVG
- protein stability index (Saccharomyces cerevisiae [1]): 0.456
- protein stability index (Saccharomyces cerevisiae [3]): 0.698

Sequence: VRGAVGGWQLVG
- protein stability index (Saccharomyces cerevisiae [1]): 0.28
- protein stability index (Saccharomyces cerevisiae [3]): 0.689

Sequence: VRGAVGGWRIVG
- protein stability index (Saccharomyces cerevisiae [1]): 0.325
- protein stability index (Saccharomyces cerevisiae [3]): 0.678

Sequence: VRGAVGGWRLVGC
- protein stability index (Saccharomyces cerevisiae [1]): 0.638
- protein stability index (Saccharomyces cerevisiae [3]): 0.694

Sequence: VRGAVGGWRLVS
- protein stability index (Saccharomyces cerevisiae [1]): 0.148
- protein stability index (Saccharomyces cerevisiae [3]): 0.686

Sequence: VRGAVGGWSLVG
- protein stability index (Saccharomyces cerevisiae [1]): 0.633
- protein stability index (Saccharomyces cerevisiae [3]): 0.689

Sequence: VRGAVGGWTLVG
- protein stability index (Saccharomyces cerevisiae [1]): 0.49
- protein stability index (Saccharomyces cerevisiae [3]): 0.664

Sequence: VRGAVGNWRLVG
- protein stability index (Saccharomyces cerevisiae [1]): 0.14
- protein stability index (Saccharomyces cerevisiae [3]): 0.69

Sequence: VRGAVKGWRLVG
- protein stability index (Saccharomyces cerevisiae [1]): 0.148
- protein stability index (Saccharomyces cerevisiae [3]): 0.68

Sequence: VRGCVGGWRLVG
- protein stability index (Saccharomyces cerevisiae [1]): 0.148
- protein stability index (Saccharomyces cerevisiae [3]): 0.655

Sequence: VRGWVGGWRLVG
- protein stability index (Saccharomyces cerevisiae [1]): 0.134
- protein stability index (Saccharomyces cerevisiae [3]): 0.681

Sequence: VRNAVGGWRLVG
- protein stability index (Saccharomyces cerevisiae [1]): 0.137
- protein stability index (Saccharomyces cerevisiae [3]): 0.674

Sequence: VRQAVGGWRLVG
- protein stability index (Saccharomyces cerevisiae [1]): 0.132
- protein stability index (Saccharomyces cerevisiae [3]): 0.684

Sequence: VRTAVGGWRLVG
- protein stability index (Saccharomyces cerevisiae [1]): 0.137
- protein stability index (Saccharomyces cerevisiae [3]): 0.678

Sequence: VRYAVGGWRLVG
- protein stability index (Saccharomyces cerevisiae [1]): 0.0921
- protein stability index (Saccharomyces cerevisiae [3]): 0.68

Sequence: VSGAVGGWRLVG
- protein stability index (Saccharomyces cerevisiae [1]): 0.143
- protein stability index (Saccharomyces cerevisiae [3]): 0.672

Sequence: VVGAVGGWRLVG
- protein stability index (Saccharomyces cerevisiae [1]): 0.125
- protein stability index (Saccharomyces cerevisiae [3]): 0.69

Sequence: YLIQPLPVQFLN
- protein stability index (Saccharomyces cerevisiae [1]): 0.0777
- protein stability index (Saccharomyces cerevisiae [3]): 0.624
